According to patent US8440190:

Target: immobilized CD52 (human) (UniProt P31358)
Test: Fab fragments assayed for binding to immobilized CD52

| Substance | fold reduction of binding against the humanized Campath-1 Fab [fold] |
| --- | --- |
| humanized Campath-1 Fab with (VH) CDR1 replaced by that of NEW | 3 |
| humanized Campath-1 Fab with (VL) CDR3 replaced by that of REI | 3 |
| humanized Campath-1 Fab with (VH) CDR3 replaced by that of NEW | 8 |
